Measured values taken from the nanobody polyreactivity screen of Harvey et al. (2022).

Assay: yeast display, Sf9 membrane polyspecificity reagent, FACS + sequencing; frameworks hold sequencing errors
Method in brief: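 Using colony PCR, genes from sorted yeast display clones were amplified, then sequenced on MiSeq at 2 × 250 and filtered by CDR length. The clones had been stained with 10% biotinylated, detergent-solubilized Sf9 membrane reagent for 1 hour at 4 °C and sorted by FACS into low and high (top ~1%) gates on anti-HA and streptavidin fluorescence. Polyreactivity labels come from the gate of origin.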

Sequence	polyreactivity (PSR sort gate)
QVQLVESGGGLVQAGGSLRLSCAASGSMFANNAMGWYRQAPGKERELVAAITSGGNTDNADSVKGRFTISRDNAKYTVYLQMNSLKPEDTAVYYCAAERPPYGYLVVGYVSTQYYYWGQGTQVTVSS	low polyreactivity
QVQLVESGGGLVQAGGSLRLSCAASGSMFIWNAMGWYRQAPGKARELVAAISFTGTSTYYADSVKGRCTSSRDNAKNTVYLQMNSLKPEDTAVYYCNTDYRGSQYDYWVQGTQVTVSS	low polyreactivity
QVQLVESGGGLVQAGGSLRLSCAASGSMFVRYAMGWYRQAPGKERELVAAISSDGNTYYADSVKGRFTISRDNAKNTVYLPRNSLKPEDTAVYYCAAKTRSRYYWGQGTQVTVSS	high polyreactivity
QVQLVESGGGLVQAGGSLRLSCAASGSMFYFYAMGWYRQAPGKERELVAAISWCDGDTYYADSVKGRFTISRDNAKNTVYLQMNSLKPEDSAVYYCAAEGLTRYYQYDYWGQGTQVTVSS	high polyreactivity
QVQLVESGGGLVQAGGSLRLSCAASGSMIAFYVMGLYRQAPGKERELVAAINRGGTNTYYADSVKGRFTISRDNAKNTVYLQMNSLKPEDTAVYYCAADGDRSAQRYTGYYYWGQGTQVTVSS	high polyreactivity
QVQLVESGGGLVQAGGSLRLSCAASGSNFDLNAMGWYRQAPGKERELVAAISSGGGTYYADSVKGRFTISRDNAKTPVYLQMNSLKPEDTAVYYCNRVTRWTYNYWGQGTQVTVSS	high polyreactivity
QVQLVESGGGLVQAGGSLRLSCAASGSNFDYNTMGWYRQAPGKEREFVAAISSSGGGTSYADSVKGRFTISRDNAKNTVYLQMNSLKPEDTAVYYCAALIKLTPYQRQYWKYRAYYYGGQGTQVTVSS	high polyreactivity
QVQLVESGGGLVQAGGSLRLSCAASGSNFDYYAMGWYRQAPGKERELVAAISSTDGSTFYADSVKGRFTISRDNAKNTVYLQMNSLKPEDTAVYYCAVVGYYYPWPNGYDYWGQGTQVTVSS	low polyreactivity
QVQLVESGGGLVQAGGSLRLSCAASGSNFFTNAMGGYRQAPGKERELVAVITKRGGSTYYADSVKGRFTISRDNAKNTVYIQMNSLKPEDTAVYYCAADARQWRYYYWGQGSQVTVSS	high polyreactivity
QVQLVESGGGLVQAGGSLRLSCAASGSNFGDNPMGWYRQAPGKERELVAAISSSGDSTYYADSVKGRFTISRDNAKNTVYLQMNSLKPEDTAVYYCADDRGSTAGSVTYTPGNYWGQGTQVTVSS	low polyreactivity
QVQLVESGGGLVQAGGSLRLSCAASGSNFLIYAMGSYSQAPGKERELVAAITFSGCSTYADSVKGRFTISRENAKNTVYLQMNSLKPEDTAVYYCAADSTKYAYDYWGQGTQVTVSS	low polyreactivity
QVQLVESGGGLVQAGGSLRLSCAASGSNFLPNAMGWYRQAPGKERELVAAISWSDDSTYYADSVKGRFTISRDNAKNTVDLQMNSLNPEDTAVYYCAADVGLWYDYWGQGTQVTVSS	high polyreactivity
QVQLVESGGGLVQAGGSLRLSCAASGSNFRVYAMGWYRQAPGKESELVAAIDSGTSTTYADSVKGRFTISRDNAKNTVYLQMNSLKPEDTAVYYCAADGWLWSFTGDGWWFDYWGQGTQVTVSS	low polyreactivity
QVQLVESGGGLVQAGGSLRLSCAASGSNFSDYAMGWYRQAPGKEREFVATITWSGTSTYYADSVKGRFTISRDNAKNTVYLQMNSLKAEDTAVYYCAAELLFWLGLVPGTIFDEFDYWGQGTQVTVSS	low polyreactivity
QVQLVESGGGLVQAGGSLRLSCAASGSNFSRYAMGWYRQAPGKERDLVAAITSTGDSTSYADSVKGRFTISRDNAKNTVYVQMNSLKPEDTAVYYCAIVYVYRYVIPYDYWGQGTQVTVSS	low polyreactivity
QVQLVESGGGLVQAGGSLRLSCAASGSNFTNAMGWYRQAPGKERELVASIDANAGDTHYADSVKGRFTISRDNAKNTVYLQLNSLKPEDTAVYYCNADVTERLWTGEDDYWGQGTQVTVSS	low polyreactivity
QVQLVESGGGLVQAGGSLRLSCAASGSNFTWYAMGWYRQAPGKERELVADIDWSGGSTYYADSVKGRFTISRDNAKNTVYLQMNSLKPEDTAVYYCNAVFLFYEYWGQGTQVTVSS	low polyreactivity
QVQLVESGGGLVQAGGSLRLSCAASGSNFTYNRMGWYRQAPGKEREFVDAITWTGGSTYAYSVKGRFTISRDNAKNTVYLQINSLKPEDTAVYYCAAVRRISWYTPVITRRYYYWGQGTQVTVSS	high polyreactivity
QVQLVESGGGLVQAGGSLRLSCAASGSNFVYNAMGWYRQAPGKERELVAVINKSGDTTYYADSVKGRFTISRDNAKNTVYLQMNSLKPEDTAVYYCNASGEVLAAVVTYDYWGQGTQVTVSS	low polyreactivity
QVQLVESGGGLVQAGGSLRLSCAASGSNFWRKAMGWYRQAPGKERELVAAITCGGSTYYADSVKGRCTISRDNAKNTVYLQMNSLKTEVTAVYYCAAGYSYRYGYWGQGTQVTVSS	low polyreactivity
QVQLVESGGGLVQAGGSLRLSCAASGSNFYDNAMGWYRQAPGKERELLAAITTSGDSTYYADSVKGPFTISRDNAKNTVYLQMNSLKPEDTAVYYCAARPRVRSSYRYYYWGQGTQVTVSS	high polyreactivity
QVQLVESGGGLVQAGGSLRLSCAASGSNFYSYAMGWYRQAPGKERELVAAITGDGGSTYYADSVKGRFTISRDNAKNTVYLQRNSLKPEDTAVYYCAVPHTYRRYDYWGQGTQVTVSS	low polyreactivity

Sequence	polyreactivity (PSR sort gate)
QVQLVESGGGLVQAGGSLRLSCAASGSNIKYYAMGWYRQAPGKERELVARITSDGGSTFYADSVKGRFTISRDNAKNTVYLQMNSLKPEDTAVYYCNTAYAFRHCWFYPMDYWGQGTQVTVSS	high polyreactivity
QVQLVESGGGLVQAGGSLRLSCAASGSNILQNAMGWYRQAPGKERELVAAITNGGSTNYADSVKGRFTISRDNAKNTVYLQMNSLKPDDTAVYYCAAYPLYTGSYDRGGYWGQGTQVTVSS	low polyreactivity
QVQLVESGGGLVQAGGSLRLSCAASGSNISQNAMGWYRQAPGKERELVASITYSGGSTYYADSVKGRFTISRDNAKNTVYLQMNSLKPEVTAVYYCAADVRYSSRFYYWGQGTQVTVSS	high polyreactivity
QVQLVESGGGLVQAGGSLRLSCAASGSNIYTYAMGWYRHAPGKERELVAAISSGGSTTYADSVKGRFTISRDNAKNTVYLEMISLKPEDTAVYYCAADGASRALYDYWGQGTQVTVSS	high polyreactivity
QVQLVESGGGLVQAGGSLRLSCAASGSNLATYTMGWYRQEPGKERELVAAISFGGSTYYADSVKGRFTISRDNAKNTDYLQMNSLKPEDTAVYYCAVYGDSYWGAYYYSDGYWGQGTQVTVSS	low polyreactivity
QVQLVESGGGLVQAGGSLRLSCAASGSNLGLYAMGWYRQAPGKERELVAAISSGGSTYYADSVKGRFTISRDNAKNTVYLQMNSLKPEDTAVYYCAADLSLSRVVFGDYDYWGQGTQVTVSS	low polyreactivity
QVQLVESGGGLVQAGGSLRLSCAASGSNSRYAMGWYRHARGKERELVRAITRSGGSTHYADSVKGRFTISRDNAMNTVYLQMNSLKPEDTAVYYCATRYYRGVIRYPYDSWGQGTQVTLSS	high polyreactivity
QVQLVESGGGLVQAGGSLRLSCAASGSNVYYAMGWYRQAPVKERELVAAINTSGGSTYYADSVKGRFTISRDNAKNTVYLQMNSLKPEDTAVYYCAAVYVGYITGFKRGYWGQGTQVTVSS	high polyreactivity
QVQLVESGGGLVQAGGSLRLSCAASGSNWSYAMGWYSQAPGKESVLVATISRRGGSTYYADSVKGRFTISRDNAKNTVYLQMNSLKPEDTAVYYCAAAESASSFRFDYWGQGTQETVSS	high polyreactivity
QVQLVESGGGLVQAGGSLRLSCAASGSNYYWYAMVWSRQAPGKEMELVADITTSDGRTYYADSVKGRFTISRDNAKNTVYFLMNSLKPEDTAVYYCAADPFSGYGFQYYRGLYYWGQGTQVSVSS	low polyreactivity
QVQLVESGGGLVQAGGSLRLSCAASGSPFRPYVMGWSRQAPGKERELVAAISWRGGTTYYADSVKGRFTISRDNAKNTDYLQIHSLKPEDTAVYYCAARGDQGVPVARRYDYWGQGTQVTVSS	high polyreactivity
QVQLVESGGGLVQAGGSLRLSCAASGSPFRSYAMGWYRQAPGKERELVAAISISGGRTYYADSVKGRFTISRDNAKNTVYLQMNSLKPEDTAVYYCAADRRTDGHDYWGQGTQVTVSS	high polyreactivity
QVQLVESGGGLVQAGGSLRLSCAASGSSFNYNTMGWYRQAPGKERELVADISWSGGSTYYADSVKGRFTISRDNAKNTVYLQMNSLKPEDTAVYYCAADFGLFPYVGTGYYYWGQGTQVTVSS	low polyreactivity
QVQLVESGGGLVQAGGSLRLSCAASGSSFTNYGMGWYRQAPGKERELVAAISESGDTTYYADSVKGRFTISRDNAKNTVYLQMNSLKPEDTAVYYCNRAHGRSRYSRDYDSWGQGTQVTVSS	low polyreactivity
QVQLVESGGGLVQAGGSLRLSCAASGSSFYTNAMGWYTQAPGKERELVAAISSSGDSTYYADSVKGRFTISRDNANNTVYLQMNSLKPEDTGVYYCNADRRSYNGFRYYYWGQGTQVTVSS	low polyreactivity
QVQLVESGGGLVQAGGSLRLSCAASGSSFYVNAMGWYRQAPGKEREFVAAITWNSGSTYYADSVKGRFTISRDNEKNTVYLQMNSLKPEDTAVYYCAAVLSGRVYGYDYWGQGTQVTVSS	low polyreactivity
QVQLVESGGGLVQAGGSLRLSCAASGSSLGLNAMGWYRQAPGKERELVAGISWRGGSTYYADSVKGRFTISRDNAKNTVYLQMNSLKPEDTAVYYCNAVRFYGRWRGYDYWGQGTQVTVSS	high polyreactivity
QVQLVESGGGLVQAGGSLRLSCAASGSSRIYDMGWYRQAPGKERVWVAAISSTGSTYYADSEKGRYTISRDNAKNTGYLQMNSLKPEETADYYCAAARYYRYDSYSSWGQGTQVTVSS	high polyreactivity
QVQLVESGGGLVQAGGSLRLSCAASGSTCDRYAMGWYRQAPGKERELVAAITDTGGSTYYADSVKGRFTISRDNAKNTVYLQMNSLKPEDTAVFYCAKGYFWSSYVSSRYGSWGQGTQVTVSS	high polyreactivity
QVQLVESGGGLVQAGGSLRLSCAASGSTCRPYVMGWFRQAPGKERELVAAISWRGGTTYYADSVKGRFTISRDNAKNTVSLQMNSLKPEDTAVYYCAARGDQGVPVARRYDYWGQGSQVTVSS	high polyreactivity
QVQLVESGGGLVQAGGSLRLSCAASGSTCYKYAMGWYRKAPGKERELVAVITKSGGSTYYADSVKGRFTISRDNAKNPVYLQMNSLTPEDTAVYYCGTVQSGRVRTYDYCGQGTQVTVSS	high polyreactivity
